Changes are numbered by the printed parent chain.
How the values were obtained:
[1] = system: T1, PRSRTVGPGSRSASGKLTCLASYCWLFWTGIA
T1 sequence: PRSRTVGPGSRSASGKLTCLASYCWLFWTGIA

MeLys-LTCLASYCWLF = system: T2, MeLys-LTCLASYCWLF
T2 sequence: KLTCLASYCWLF

[2] = system: T3, RRAPGCLTALASYAWLCWTGIA-COOH
T3 sequence: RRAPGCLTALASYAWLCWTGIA

KLT-Dap-LASY-Glu-WLF = system: T4, KLT-Dap-LASY-Glu-WLF
T4 sequence: KLTXLASYEWLF

[3] = system: T5, PRIRTVGPSSRSASGKLTCLASYCWLFWTGIA
T5 sequence: T1 sequence with S3I, G9S

KLQCLASYCWLFWTGIA = system: T6, KLQCLASYCWLFWTGIA
T6 sequence: KLQCLASYCWLFWTGIA

[4] = system: T7, PRIrTVGPGSrSASGKSTCLASYCWLFWTGIA-PEG4-Pra
T7 sequence: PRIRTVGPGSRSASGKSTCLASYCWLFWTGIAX

[5] = system: T8, RRAPGKCTALASYAWCFWTGIA-CONH2
T8 sequence: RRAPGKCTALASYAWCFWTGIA

[6] = system: T9, PRIRTVGPGSRSASGKLTCLASYCWLFWTGI
T9 sequence: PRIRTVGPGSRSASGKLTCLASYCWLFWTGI

[7] = system: T10, aigtwflwcysalctlkgparr (retro-inverso)
T10 sequence: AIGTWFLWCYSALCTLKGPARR

KLTCLASYCWIF = system: T11, KLTCLASYCWIF
T11 sequence: KLTCLASYCWLF

compound 3 = system: T12, compound 3
T12 sequence: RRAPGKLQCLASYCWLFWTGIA

RRAPGKLTCLASYCwLFWTGIA = system: T13, RRAPGKLTCLASYCwLFWTGIA
T13 sequence: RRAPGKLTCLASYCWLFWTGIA

[8] = system: T14, AQWVGRGQWA IRAPG KLTCLASYCWLFWTGIA
T14 sequence: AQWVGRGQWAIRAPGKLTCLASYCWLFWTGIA

compound B = system: T15, compound B
T15 sequence: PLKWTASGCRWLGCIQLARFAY

KLTCLASACWLF = system: T16, KLTCLASACWLF
T16 sequence: KLTCLASACWLF

[9] = system: T17, QRAGRVARLH RRAPN KLTCLASYCWLFWTGIA
T17 sequence: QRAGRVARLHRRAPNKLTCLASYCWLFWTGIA

compound 2 = system: T18, compound 2
T18 sequence: KLTCLASYCWLF

[10] = system: T19, RRAPGKLT-Lys-LASY-Asp-WLFWTGIA-CONH2
T19 sequence: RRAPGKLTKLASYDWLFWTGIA

[11] = system: T20, PRIRTVGPGSRSASGKLTCLASYCWLFFTGIA
T20 sequence: T1 sequence with S3I, W28F

Lys(Me)-LTCLASYCWLF = system: T21, Lys(Me)-LTCLASYCWLF
T21 sequence: KLTCLASYCWLF

compound 10 = system: T22, compound 10
T22 sequence: KLTCLASYCWLFWTGIA

[12] = system: T23, CGGGLVPRGGG-RRAPGKLT-Asp-LASY-Lys-WLFWTGIA
T23 sequence: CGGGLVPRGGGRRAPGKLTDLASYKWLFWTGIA

rRAAGKATCLASACW LAATGIA = system: T24, rRAAGKATCLASACW LAATGIA
T24 sequence: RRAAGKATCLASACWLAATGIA

WVPQWKVTCLASCSRLFHGFDA = system: T25, WVPQWKVTCLASCSRLFHGFDA
T25 sequence: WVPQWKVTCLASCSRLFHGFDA

rRAAGKLTCLASYCWLFATGIA = system: T26, rRAAGKLTCLASYCWLFATGIA
T26 sequence: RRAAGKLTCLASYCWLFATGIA

[13] = system: T27, SKQGRPISSDrRAAGKSTCLASYCWLFWTGIA
T27 sequence: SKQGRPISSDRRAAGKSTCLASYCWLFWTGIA

RRAPGKLQCLASYCWLFWTGFA = system: T28, RRAPGKLQCLASYCWLFWTGFA
T28 sequence: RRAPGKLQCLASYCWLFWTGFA

FGQPSRLTCLASYCWLFGNLVT = system: T29, FGQPSRLTCLASYCWLFGNLVT
T29 sequence: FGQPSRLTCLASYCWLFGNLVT

compound 4 = system: T30, compound 4
T30 sequence: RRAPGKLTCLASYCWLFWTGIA

[14] = system: T31, RRAPGKCTALASYCWLFWTGIA-COOH
T31 sequence: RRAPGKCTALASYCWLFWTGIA

CRRAPGKLQCLASYCWLFWTGIAC = system: T32, CRRAPGKLQCLASYCWLFWTGIAC
T32 sequence: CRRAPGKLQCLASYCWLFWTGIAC

[15] = system: T33, RRAPGKLTCLASYCWLF GSGIS LSRAPESAAP
T33 sequence: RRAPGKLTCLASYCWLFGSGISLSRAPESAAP

[16] = system: T34, RRAPGKLTCLASYCWLF WTGLL DYPTPQSHEP
T34 sequence: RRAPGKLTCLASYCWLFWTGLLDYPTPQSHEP

KLTCLVSYCWLF = system: T35, KLTCLVSYCWLF
T35 sequence: KLTCLVSYCWLF

[17] = system: T36, RRAPGKCTALASYCWLFWTGIA-CONH2
T36 sequence: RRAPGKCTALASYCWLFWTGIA

VSGTGRLTCVASYCWMFQLGIF = system: T37, VSGTGRLTCVASYCWMFQLGIF
T37 sequence: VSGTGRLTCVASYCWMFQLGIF

[18] = system: T38, RSHSLDRMAG RRAPG KLTCLASYCWLFWTGIA
T38 sequence: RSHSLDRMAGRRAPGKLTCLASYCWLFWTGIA

[19] = system: T39, C(Acm)GGGGfpipR-PEG5-rRAPGKLTCLASYCWLFWTGIA
T39 sequence: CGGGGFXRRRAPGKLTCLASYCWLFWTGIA

[20] = system: T40, RRAPGKLQCLASYCWLFWTGIAAAAGAP
T40 sequence: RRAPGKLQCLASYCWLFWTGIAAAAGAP

RRAPGKLQCLASYCWLFWTGLA = system: T41, RRAPGKLQCLASYCWLFWTGLA
T41 sequence: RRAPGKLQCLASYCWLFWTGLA

ALTCLASYCWLF = system: T42, ALTCLASYCWLF
T42 sequence: ALTCLASYCWLF

[21] = system: T43, RRAPGKLT-Dab-LASY-Asp-WLFWTGIA-CONH2
T43 sequence: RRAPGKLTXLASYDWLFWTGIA

[22] = system: T44, RRAPGKLTCLASYCWLF WTGYA SGKPSRVYVI
T44 sequence: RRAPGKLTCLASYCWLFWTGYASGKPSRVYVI

compound 5 = system: T45, compound 5
T45 sequence: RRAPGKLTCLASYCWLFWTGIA

[23] = system: T46, GSVRRALFVA ARAPA KLTCLASYCWLFWTGIA
T46 sequence: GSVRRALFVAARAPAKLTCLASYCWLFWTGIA

human Factor IXa
Vmax, FXa generation assay [1]: > 3
Vmax, FXa generation assay; (++) means 1-2 (MeLys-LTCLASYCWLF): (++)
Vmax, FXa generation assay [2]: > 0.1
Vmax, FXa generation assay; (++) means 1-2 (KLT-Dap-LASY-Glu-WLF): (++)
Vmax, FXa generation assay [3]: > 3
Vmax, FXa generation assay (KLQCLASYCWLFWTGIA): > 2
Vmax, FXa generation assay [4]: > 3
Vmax, FXa generation assay; (++) means 1-2 [5]: (++)
Vmax, FXa generation assay [6]: > 3
Vmax, FXa generation assay [7]: > 2
Vmax, FXa generation assay (KLTCLASYCWIF): > 3
KM (nM) of hFIXa for FX (compound 3): 16 nM
Vmax (mOD/min min), with phospholipids (compound 3): 3.9 mOD/min min
Vmax (mOD/min min), without phospholipids (compound 3): 2.77 mOD/min min
Vmax, FXa generation assay with hFIXa (compound 3): > 3
kcat (min^-1) of hFIXa for FX, compound at 1 µM (compound 3): 0.0177 min⁻¹
Δ KM (Km compound/Km buffer) (compound 3): 0.21
Vmax, FXa generation assay (RRAPGKLTCLASYCwLFWTGIA): > 2
Vmax, FXa generation assay [8]: > 2
Vmax, FXa generation assay with hFIXa; (++) means 1-2 (compound B): (++)
Vmax, FXa generation assay (KLTCLASACWLF): > 2
Vmax, FXa generation assay [9]: > 2
Vmax (mOD/min min), with phospholipids (compound 2): 4.22 mOD/min min
Vmax (mOD/min min), without phospholipids (compound 2): 3.05 mOD/min min
Vmax, FXa generation assay (compound 2): > 3
Vmax, FXa generation assay with hFIXa (compound 2): > 3
Vmax, FXa generation assay; (++) means 1-2 [10]: (++)
Vmax, FXa generation assay [11]: > 3
Vmax, FXa generation assay; (++) means 1-2 (Lys(Me)-LTCLASYCWLF): (++)
Vmax, FXa generation assay with hFIXa; (++) means 1-2 (compound 10): (++)
Vmax, FXa generation assay [12]: > 2
Vmax, FXa generation assay (rRAAGKATCLASACW LAATGIA): > 3
Vmax, FXa generation assay (WVPQWKVTCLASCSRLFHGFDA): > 1.5
Vmax, FXa generation assay; (++) means 1-2 (rRAAGKLTCLASYCWLFATGIA): (++)
Vmax, FXa generation assay [13]: > 3
Vmax, FXa generation assay (RRAPGKLQCLASYCWLFWTGFA): > 2
Vmax, FXa generation assay; (++) means 1-2 (FGQPSRLTCLASYCWLFGNLVT): (++)
KM (nM) of hFIXa for FX (compound 4): 11 nM
Vmax, FXa generation assay with hFIXa (compound 4): > 2
kcat (min^-1) of hFIXa for FX, compound at 1 µM (compound 4): 0.0171 min⁻¹
Δ KM (Km compound/Km buffer) (compound 4): 0.14
Vmax, FXa generation assay; (++) means 1-2 [14]: (++)
Vmax, FXa generation assay (CRRAPGKLQCLASYCWLFWTGIAC): > 2
Vmax, FXa generation assay [15]: > 3
Vmax, FXa generation assay [16]: > 2
Vmax, FXa generation assay (KLTCLVSYCWLF): > 2
Vmax, FXa generation assay [17]: > 2
Vmax, FXa generation assay; (++) means 1-2 (VSGTGRLTCVASYCWMFQLGIF): (++)
Vmax, FXa generation assay [18]: > 3
Vmax, FXa generation assay [19]: > 3
Vmax, FXa generation assay; (++) means 1-2 [20]: (++)
Vmax, FXa generation assay (RRAPGKLQCLASYCWLFWTGLA): > 2
Vmax, FXa generation assay; (++) means 1-2 (ALTCLASYCWLF): (++)
Vmax, FXa generation assay [21]: > 2
Vmax, FXa generation assay [22]: > 3
KM (nM) of hFIXa for FX (compound 5): 11 nM
Vmax, FXa generation assay with hFIXa (compound 5): > 2
kcat (min^-1) of hFIXa for FX, compound at 1 µM (compound 5): 0.0179 min⁻¹
Δ KM (Km compound/Km buffer) (compound 5): 0.14
Δ kM of FIXa, FXa generation assay (compound 5): 0.14
Δ kcat of FIXa, FXa generation assay (compound 5): 199 fold
Vmax, FXa generation assay [23]: > 2
